US20160159919A1 (Chugai, published 2016)
Positions count from the first letter of the chain named.

B1: H111-G1d/L47-k (antibody, human IgG1, kappa, V domains shown)
VH: QDQLVQSGAEVKKPGASVKVSCKASGFNIKDTYIQWVRQAPGQGLEWMGRIDPLRGNTKYREKFEGRVTITADTSTNTAYMELSSLRSEDTAVYYCVRSGTLFDFWGQGTLVTVSS
VL: DIQMTQSPSSLSASVGDRVTITCKASQDIHKYIAWYQQKPGQAPRLLIQYTSTLQPGVPSRFSGSGSGTDYTFTISSLQPEDIATYYCLQYDRLRTFGGGTKVEIKR
B2: H118-G1d/LB-k (antibody, human IgG1, kappa, V domains shown)
VH: B1 VH with T58R
VL: B1 VL with R93N
B3: H111-G1d/LB-k (antibody, human IgG1, kappa, V domains shown)
VH: B1 VH
VL: B1 VL with R93N
B4: H119-G1d/LB-k (antibody, human IgG1, kappa, V domains shown)
VH: B1 VH with K59R
VL: B1 VL with R93N
B5: H116-G1d/LB-k (antibody, human IgG1, kappa, V domains shown)
VH: B1 VH with G56R
VL: B1 VL with R93N
B6: H117-G1d/LB-k (antibody, human IgG1, kappa, V domains shown)
VH: B1 VH with N57R
VL: B1 VL with R93N
B7: H112-G1d/LB-k (antibody, human IgG1, kappa, V domains shown)
VH: B1 VH with I51R
VL: B1 VL with R93N
B8: H111-G1d/L48-k (antibody, human IgG1, kappa, V domains shown)
VH: B1 VH
VL: B1 VL with R93N, L94R
B9: H67-G1d/LB-k (antibody, human IgG1, kappa, V domains shown)
VH: B1 VH with R55L, R61V, E62P, E65Q
VL: B1 VL with R93N
notes: also called H67-G1/LB-k
B10: H61-G1d/LB-k (antibody, human IgG1, kappa, V domains shown)
VH: B1 VH with R55K, R61V, E62P, E65Q
VL: B1 VL with R93N
notes: also called H61-G1/LB-k
B11: H57-G1d/LB-k (antibody, human IgG1, kappa, V domains shown)
VH: B1 VH with R55T, R61V, E62P, E65Q
VL: B1 VL with R93N
notes: also called H57-G1/LB-k
B12: H42-G1d/LB-k (antibody, human IgG1, kappa, V domains shown)
VH: B1 VH with R55N, R61K, E62P, E65Q
VL: B1 VL with R93N
B13: H65-G1d/LB-k (antibody, human IgG1, kappa, V domains shown)
VH: B1 VH with R55F, R61V, E62P, E65Q
VL: B1 VL with R93N
notes: also called H65-G1/LB-k
B14: H3-G1d/LB-k (antibody, human IgG1, kappa, V domains shown)
VH: B1 VH with R55N, R61V, E62D, E65Q
VL: B1 VL with R93N
B15: H31-G1d/LB-k (antibody, human IgG1, kappa, V domains shown)
VH: B1 VH with R55N, R61V
VL: B1 VL with R93N
B16: H45-G1d/LB-k (antibody, human IgG1, kappa, V domains shown)
VH: B1 VH with R55N, R61T, E62P, E65Q
VL: B1 VL with R93N
B17: HY-G1d/L30-k (antibody, human IgG1, kappa, V domains shown)
VH: B1 VH with R55N, R61V, E62P, E65Q
VL: B1 VL with D92E, R93N
notes: the text names only HY-G1d/L32-k as obtained; also called HY-G1/L30-k
B18: HY-G1d/L2-k (antibody, human IgG1, kappa, V domains shown)
VH: B1 VH with R55N, R61V, E62P, E65Q
VL: B1 VL with K24S, R93N
B19: H44-G1d/LB-k (antibody, human IgG1, kappa, V domains shown)
VH: B1 VH with R55N, R61S, E62P, E65Q
VL: B1 VL with R93N
B20: H23-G1d/LB-k (antibody, human IgG1, kappa, V domains shown)
VH: B1 VH with R55N, N57S, R61V, E62P, E65Q
VL: B1 VL with R93N
notes: also called H23-G1/LB-k
B21: H87-G1d/L21-k (antibody, human IgG1, kappa, V domains shown)
VH: B1 VH with R55T, N57Q, R61Q, L102S
VL: B1 VL with K24Q, R93N, K106E
B22: H40-G1d/LB-k (antibody, human IgG1, kappa, V domains shown)
VH: B1 VH with R55N, N57Q, R61V, E62P, E65Q
VL: B1 VL with R93N
notes: also called H40-G1/LB-k
B23: H8-G1d/LB-k (antibody, human IgG1, kappa, V domains shown)
VH: B1 VH with R55N, R61V, E62P
VL: B1 VL with R93N
B24: H66-G1d/LB-k (antibody, human IgG1, kappa, V domains shown)
VH: B1 VH with R55V, R61V, E62P, E65Q
VL: B1 VL with R93N
notes: also called H66-G1/LB-k
B25: H41-G1d/LB-k (antibody, human IgG1, kappa, V domains shown)
VH: B1 VH with R55N, R61H, E62P, E65Q
VL: B1 VL with R93N
B26: H10-G1d/LB-k (antibody, human IgG1, kappa, V domains shown)
VH: B1 VH with R55N, R61V, E62P, E65Q, G66E
VL: B1 VL with R93N
B27: HY-G1d/L12-k (antibody, human IgG1, kappa, V domains shown)
VH: B1 VH with R55N, R61V, E62P, E65Q
VL: B1 VL with Q55E, R93N
B28: H7-G1d/LB-k (antibody, human IgG1, kappa, V domains shown)
VH: B1 VH with R55N, R61V, E62P, E65D
VL: B1 VL with R93N
B29: H9-G1d/LB-k (antibody, human IgG1, kappa, V domains shown)
VH: B1 VH with R55N, R61V, E62P, E65Q, G66D
VL: B1 VL with R93N
B30: H6-G1d/LB-k (antibody, human IgG1, kappa, V domains shown)
VH: B1 VH with R55N, R61V, E62P, K63Q, E65Q
VL: B1 VL with R93N
B31: H25-G1d/LB-k (antibody, human IgG1, kappa, V domains shown)
VH: B1 VH with R55N, R61V, E62P, E65Q, L102S
VL: B1 VL with R93N
B32: H71-G1d/LB-k (antibody, human IgG1, kappa, V domains shown)
VH: B1 VH with D31A, R55N, R61V, E62P, E65Q
VL: B1 VL with R93N
notes: also called H71-G1/LB-k
B33: HY-G1d/L32-k (antibody, human IgG1, kappa, V domains shown)
VH: B1 VH with R55N, R61V, E62P, E65Q
VL: B1 VL with D92E, R93Q
notes: also called HY-G1/L32-k
B34: H43-G1d/LB-k (antibody, human IgG1, kappa, V domains shown)
VH: B1 VH with R55N, E62P, E65Q
VL: B1 VL with R93N
B35: H5-G1d/LB-k (antibody, human IgG1, kappa, V domains shown)
VH: B1 VH with R55N, R61V, E62P, K63S, E65Q
VL: B1 VL with R93N
B36: H87-G1d/L37-k (antibody, human IgG1, kappa, V domains shown)
VH: B1 VH with R55T, N57Q, R61Q, L102S
VL: B1 VL with K24Q, F73L, I83F, R93N

Molecular target: T1, cynomolgus EREG (Biacore analyte) (cynomolgus monkey, UniProt O14944 63-108 (human entry), limits assumed)
T1 construct: also called cynomolgus monkey EREG; cEREG
T1 sequence (O14944 other isoform, or with tags, fused parts or gaps limits assumed): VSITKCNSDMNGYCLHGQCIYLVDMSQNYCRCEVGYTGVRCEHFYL
Assay: SPR (Biacore T100), antibody captured on Protein A, EREG as analyte; KD for monkey EREG over KD for human EREG
Procedure: The affinity and association rate constant of an anti-EREG antibody for an antigen were measured by the single-cycle kinetics method of surface plasmon resonance assay using Biacore™-T100 (GE Healthcare Japan). HBS-EP+ (GE Healthcare Japan) was used for the running buffer, and an amine coupling kit (GE Healthcare Japan) was used to covalently bond Protein A to the CM5 chip (carboxymethyl dextran-coated chip). Each anti-EREG antibody was prepared so that approximately 350 RU will be captured by Protein A. Human EREG or cynomolgus EREG used as the analyte was prepared at 0, 0.7, 1.4, 2.8, 5.6, and 11.2 nM using HBS-EP+. Measurement was carried out by first allowing Protein A to capture the antibody solution, and then at a flow rate of 30 μL/min, successively injecting each of the 0, 0.7, 1.4, 2.8, 5.6, and 11.2 nM human EREG or cynomolgus EREG solutions for three minutes to allow reaction to take place. Then, the solution was switched to HBS-EP+, and the dissociation phase was measured for 15 minutes. After completion of the dissociation phase measurement, the sensor chip was washed with 25 mM NaOH and regenerated. The measurement at zero concentration was similarly carried out by allowing Protein A to capture the antibody solution, and performing three-minute HBS-EP+ injections successively for five times to allow reaction to take place, and then switching to HBS-EP+ to measure the dissociation phase for 15 minutes. After completion of the dissociation phase measurement, the sensor chip was washed with 25 mM NaOH and regenerated. A data analysis software exclusively for Biacore, Biacore T100 Evaluation Software Version 2.0.1, was used to perform kinetic analyses to calculate the association rate constant (kₐ), dissociation rate constant (kd), and the rate constant ratio from the obtained sensorgrams. To correct for the day-to-day differences in the measurement values, FIGS. 1 to 4 and Tables 16 and 19 show ratios based on taking the value of the control sample (cH-G1/cL-k) measured on the same day as 1.

cEREG KD (nM)/hEREG KD (nM) | Binder
12.6 ratio | B1
7.5 ratio | B2
9 ratio | B3
9.8 ratio | B4
6.1 ratio | B5
7.9 ratio | B6
16 ratio | B7
8.4 ratio | B8

Molecular target: T2, soluble human EREG fragment having a mature EGF domain structure (R&D Systems cat. no. 1195-EP/CF) (human, UniProt O14944 63-108)
T2 construct: bought; coated on ELISA plates; also called human epiregulin; recombinant human Epiregulin
T2 sequence (O14944 63-108 limits assumed): as the sequence (O14944 other isoform, or with tags, fused parts or gaps limits assumed) above, with N7S, Y45F counted along it
Assay: competitive ELISA on coated soluble human EREG fragment
Procedure: The soluble human EREG fragment having a mature EGF domain structure (the polypeptide of SEQ ID NO: 34 which corresponds to ⁶³Val to ¹⁰⁸Leu) was purchased from R&D Systems (cat. no. 1195-EP/CF). The soluble human EREG fragment was used to coat nunc immunoplates, and after blocking with a BSA-containing solution, the competitive binding reactivity between mouse hybridoma-derived EP27 and the purified humanized anti-EREG antibody was analyzed. Mouse hybridoma-derived EP27 and a purified humanized anti-EREG antibody were added to the plates, and after two hours of incubation, the plates were washed; and an alkaline phosphatase-labeled anti-human IgG antibody (Zymed) was added to each well of the plates and then allowed to react. Each well was washed, and then the amount of bound antibody (A405/655 detection value) was determined by addition of a test reagent, Sigma p-Nitrophenyl phosphate Tablets.

binding result | Binder
binds | B9
binds | B10
binds | B11
binds | B12
binds | B13
binds | B14
binds | B15
binds | B16
binds | B17
binds | B18
binds | B19
binds | B20
binds | B21
binds | B22
binds | B23
binds | B24
binds | B25
binds | B26
binds | B27
binds | B28
binds | B29
binds | B30
binds | B31
binds | B32
binds | B33
binds | B34
binds | B35
binds | B36
